Results on 4 variants are retold here after FireProtDB (doi:10.1021/bi051692c).

To fix the notation:
B1: Band 3 anion transport protein, P02730 (parent)
chain: MEELQDDYEDMMEENLEQEEYEDPDIPESQMEEPAAHDTEATATDYHTTSHPGTHKVYVELQELVMDEKNQELRWMEAARWVQLEENLGENGAWGRPHLSHLTFWSLLELRRVFTKGTVLLDLQETSLAGVANQLLDRFIFEDQIRPQDREELLRALLLKHSHAGELEALGGVKPAVLTRSGDPSQPLLPQHSSLETQLFCEQGDGGTEGHSPSGILEKIPPDSEATLVLVGRADFLEQPVLGFVRLQEAAELEAVELPVPIRFLFVLLGPEAPHIDYTQLGRAAATLMSERVFRIDAYMAQSRGELLHSLEGFLDCSLVLPPTDAPSEQALLSLVPVQRELLRRRYQSSPAKPDSSFYKGLDLNGGPDDPLQQTGQLFGGLVRDIRRRYPYYLSDITDAFSPQVLAAVIFIYFAALSPAITFGGLLGEKTRNQMGVSELLISTAVQGILFALLGAQPLLVVGFSGPLLVFEEAFFSFCETNGLEYIVGRVWIGFWLILLVVLVVAFEGSFLVRFISRYTQEIFSFLISLIFIYETFSKLIKIFQDHPLQKTYNYNVLMVPKPQGPLPNTALLSLVLMAGTFFFAMMLRKFKNSSYFPGKLRRVIGDFGVPISILIMVLVDFFIQDTYTQKLSVPDGFKVSNSSARGWVIHPLGLRSEFPIWMMFASALPALLVFILIFLESQITTLIVSKPERKMVKGSGFHLDLLLVVGMGGVAALFGMPWLSATTVRSVTHANALTVMGKASTPGAAAQIQEVKEQRISGLLVAVLVGLSILMEPILSRIPLAVLFGIFLYMGVTSLSGIQLFDRILLLFKPPKYHPDVPYVKRVKTWRMHLFTGIQIICLAVLWVVKSTPASLALPFVLILTVPLRRVLLPLIFRNVELQCLDADDAKATFDEEEGRDEYDEVAMPV

The variants in the data set derive from B1. The settings on record: Homo sapiens, reversible: No, structure 1HYN, whole UniProt chain shown; for denaturant midpoint (higher = more stable): 24 °C, Urea, Fluorescence, sodium phosphate sodium borate 50 mM 50 mM, sodium chloride 70 mM; for Tm / change of melting temperature, mutant - wild type (higher = more stable): Thermal, sodium phosphate 10 mM.
Setting [1] is: pH 7, CD, sodium fluoride 50 mM.
Setting [2] is: pH 7.5, DSC, sodium chloride 50 mM.

For the variant P327R, the “denaturant midpoint (higher = more stable)” value (from here on “denaturant midpoint”) (pH 7) was 4.56 M. In addition, under setting [1], the Tm – broadly, the temperature at which the thermal transition is half complete – came out at 64 °C and the “change of melting temperature, mutant - wild type (higher = more stable)” value (from here on “change of melting temperature, mutant”) was -5 °C.

With G130R, where the note is “pH 7”, the “denaturant midpoint” value amounted to 4.85 M. Besides, under setting [1], the Tm was found to be 68.7 °C and the “change of melting temperature, mutant” value was -0.3 °C. In addition, under setting [2], the Tm was 65.5 °C and the “change of melting temperature, mutant” value is -0.7 °C.

Consider K56E, for which, under setting [1], the Tm turned out to be 67.7 °C and the “change of melting temperature, mutant” value is -1.3 °C. Under setting [2], the Tm was 66.5 °C and the “change of melting temperature, mutant” value is 0.3 °C.

Regarding E40K, the “denaturant midpoint” value (pH 7) is 4.73 M. For the same variant, under setting [2], the Tm came to 64.9 °C and the “change of melting temperature, mutant” value is -1.3 °C.
